Assay [1] concerns the target T1, RSV F protein (UniProt P03420 26-524). Briefly: ELISA, 100 ng/well RSV F protein coated, HRP anti-human IgG (Fc specific), QuantaBlu fluorescence (10 min).
Description: Optimized palivizumab-relaxin fusion protein antibodies were tested for binding to RSV by ELISA assay. 100 ng/well RSV F protein was coated on 96-well plate in PBS 4° C. overnight. The plate was blocked with 2% BSA/PBS at room temperature for 1 hr, then washed twice with 200 μL PBS. The fusion antibodies were incubated at various concentrations (as indicated in FIG. 4) in 2% BSA/PBS at room temperature for 1 hr. Plates were washed with PBS (0.025% Tween-20 in PBS) four times and washed with PBS one time. […] Binding was quantified using Spectramax fluorescence plate reader with excitation at 325 nm and emission at 420 nm. Binding Kd values were determined (Table 14).
In assay [2] the target is T2, relaxin receptor (LGR7).
T2 sequence (Q9HBX9 whole entry, species assumed, looked up): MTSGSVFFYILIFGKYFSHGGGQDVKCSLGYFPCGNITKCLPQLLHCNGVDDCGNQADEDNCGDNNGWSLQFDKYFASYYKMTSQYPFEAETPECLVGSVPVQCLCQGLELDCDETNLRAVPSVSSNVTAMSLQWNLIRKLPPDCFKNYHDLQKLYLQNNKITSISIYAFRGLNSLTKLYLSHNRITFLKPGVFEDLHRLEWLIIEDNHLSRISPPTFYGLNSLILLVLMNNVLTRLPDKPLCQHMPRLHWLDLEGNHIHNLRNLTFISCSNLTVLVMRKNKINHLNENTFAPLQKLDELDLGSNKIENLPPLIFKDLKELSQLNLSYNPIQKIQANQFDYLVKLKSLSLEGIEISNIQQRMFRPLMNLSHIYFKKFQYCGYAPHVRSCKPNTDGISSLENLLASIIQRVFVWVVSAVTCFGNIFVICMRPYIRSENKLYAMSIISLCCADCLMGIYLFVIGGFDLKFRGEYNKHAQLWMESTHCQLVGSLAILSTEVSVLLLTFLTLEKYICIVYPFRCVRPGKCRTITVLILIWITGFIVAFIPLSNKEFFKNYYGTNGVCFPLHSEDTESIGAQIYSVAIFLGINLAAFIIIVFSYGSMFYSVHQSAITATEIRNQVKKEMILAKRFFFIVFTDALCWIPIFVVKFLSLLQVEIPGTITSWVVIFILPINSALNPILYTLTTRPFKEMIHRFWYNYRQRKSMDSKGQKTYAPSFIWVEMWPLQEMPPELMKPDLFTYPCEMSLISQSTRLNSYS
Briefly: cell-based or functional assay.

Assay [3] has as its target T1, RSV F protein. Briefly: plate binding assay, RSV F protein coated, anti-human IgG (Fc specific) detection, fluorescence read at 25 min.
Assay [4] deals with T1, RSV F protein. The experiment in a line: plate binding assay, RSV F protein coated, anti-human IgG (Fc specific) detection, fluorescence read at 50 min.

T1 sequence (P03420 26-524): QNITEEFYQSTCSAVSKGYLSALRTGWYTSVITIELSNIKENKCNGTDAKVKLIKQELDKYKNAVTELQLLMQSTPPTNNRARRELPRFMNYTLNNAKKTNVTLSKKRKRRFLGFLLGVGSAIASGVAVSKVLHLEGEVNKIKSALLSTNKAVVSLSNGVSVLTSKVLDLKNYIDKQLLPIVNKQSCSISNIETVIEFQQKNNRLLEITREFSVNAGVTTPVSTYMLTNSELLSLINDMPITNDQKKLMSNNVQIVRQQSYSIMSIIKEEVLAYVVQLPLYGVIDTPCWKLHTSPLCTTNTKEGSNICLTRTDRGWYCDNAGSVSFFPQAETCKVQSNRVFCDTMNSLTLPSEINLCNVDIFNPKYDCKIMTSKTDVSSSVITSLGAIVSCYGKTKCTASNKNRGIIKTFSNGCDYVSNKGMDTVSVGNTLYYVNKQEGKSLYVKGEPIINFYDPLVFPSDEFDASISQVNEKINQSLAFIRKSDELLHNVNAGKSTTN

B1: RLX304 (antibody, human IgG1, kappa)
heavy: DSWMEEVIKLCGRELVRAQIAICGMSTWSGGGGSGGGGQLYSALANKCCHVGCTKRSLARFCGGGGSGGGGSGGGGSGQVTLRESGPALVKPTQTLTLTCTFSGFSLSTSGMSVGWIRQPPGKALEWLADIWWDDKKDYNPSLKSRLTISKDTSKNQVVLKVTNMDPADTATYYCARSMITNAYFDVWGAGTTVTVSSASTKGPSVFPLAPSSKSTSGGTAALGCLVKDYFPEPVTVSWNSGALTSGVHTFPAVLQSSGLYSLSSVVTVPSSSLGTQTYICNVNHKPSNTKVDKKVEPKSCDKTHTCPPCPAPPVAGPSVFLFPPKPKDTLMISRTPEVTCVVVDVSHEDPEVKFNWYVDGVEVHNAKTKPREEQYNSTYRVVSVLTVLHQDWLNGKEYKCKVSNKGLPSSIEKTISKAKGQPREPQVYTLPPSRDELTKNQVSLTCLVKGFYPSDIAVEWESNGQPENNYKTTPPVLDSDGSFFLYSKLTVDKSRWQQGNVFSCSVMHEALHNHYTQKSLSLSPGK
light: DIQMTQSPSTLSASVGDRVTITCKCQLSVGYMHWYQQKPGKAPKLLIYDTSKLASGVPSRFSGSGSGTAFTLTISSLQPDDFATYYCFQGSGYPFTFGGGTKLEIKRTVAAPSVFIFPPSDEQLKSGTASVVCLLNNFYPREAKVQWKVDNALQSGNSQESVTEQDSKDSTYSLSSTLTLSKADYEKHKVYACEVTHQGLSSPVTKSFNRGEC
Take B1: the Kd in assay [1] was 38.2 nM. In addition, the “EC50, CRE-luciferase reporter assay” value in assay [2] is 0.078 nM.

B2: Palivizumab null (antibody, human IgG1, kappa)
heavy: QVTLRESGPALVKPTQTLTLTCTFSGFSLSTSGMSVGWIRQPPGKALEWLADIWWDDKKDYNPSLKSRLTISKDTSKNQVVLKVTNMDPADTATYYCARSMITNWYFDVWGAGTTVTVSSASTKGPSVFPLAPSSKSTSGGTAALGCLVKDYFPEPVTVSWNSGALTSGVHTFPAVLQSSGLYSLSSVVTVPSSSLGTQTYICNVNHKPSNTKVDKKVEPKSCDKTHTCPPCPAPPVAGPSVFLFPPKPKDTLMISRTPEVTCVVVDVSHEDPEVKFNWYVDGVEVHNAKTKPREEQYNSTYRVVSVLTVLHQDWLNGKEYKCKVSNKGLPSSIEKTISKAKGQPREPQVYTLPPSRDELTKNQVSLTCLVKGFYPSDIAVEWESNGQPENNYKTTPPVLDSDGSFFLYSKLTVDKSRWQQGNVFSCSVMHEALHNHYTQKSLSLSPGK
light: DIQMTQSPSTLSASVGDRVTITCKCQLSVGYMHWYQQKPGKAPKLLIYDTSKLASGVPSRFSGSGSGTEFTLTISSLQPDDFATYYCFQGSGYPFTFGGGTKLEIKRTVAAPSVFIFPPSDEQLKSGTASVVCLLNNFYPREAKVQWKVDNALQSGNSQESVTEQDSKDSTYSLSSTLTLSKADYEKHKVYACEVTHQGLSSPVTKSFNRGEC
notes: also called null palivizumab antibody
Regarding B2, the Kd was 0.8 nM in assay [3] and 0.49 nM in assay [4].

B3: RLX301 (antibody, human IgG1, kappa)
heavy: DSWMEEVIKLCGRELVRAQIAICGMSTWSGGGGSGGGGQLYSALANKCCHVGCTKRSLARFCGGGGSGGGGSGGGGSGQVTLRESGPALVKPTQTLTLTCTFSGFSLSTSGMSVGWIRQPPGKALEWLADIWWDDKKDYNPSLKSRLTISKDTSKNQVVLKVTNMDPADTATYYCARSMITFGGFDVWGAGTTVTVSSASTKGPSVFPLAPSSKSTSGGTAALGCLVKDYFPEPVTVSWNSGALTSGVHTFPAVLQSSGLYSLSSVVTVPSSSLGTQTYICNVNHKPSNTKVDKKVEPKSCDKTHTCPPCPAPPVAGPSVFLFPPKPKDTLMISRTPEVTCVVVDVSHEDPEVKFNWYVDGVEVHNAKTKPREEQYNSTYRVVSVLTVLHQDWLNGKEYKCKVSNKGLPSSIEKTISKAKGQPREPQVYTLPPSRDELTKNQVSLTCLVKGFYPSDIAVEWESNGQPENNYKTTPPVLDSDGSFFLYSKLTVDKSRWQQGNVFSCSVMHEALHNHYTQKSLSLSPGK
light: DIQMTQSPSTLSASVGDRVTITCKCQLSVGYMHWYQQKPGKAPKLLIYDTSKLASGVPSRFSGSGSGTAFTLTISSLQPDDFATYYCFQGSGYPFTFGGGTKLEIKRTVAAPSVFIFPPSDEQLKSGTASVVCLLNNFYPREAKVQWKVDNALQSGNSQESVTEQDSKDSTYSLSSTLTLSKADYEKHKVYACEVTHQGLSSPVTKSFNRGEC
B3 showed a Kd in assay [1] of 79.3 nM. Further, in assay [2], the “EC50, CRE-luciferase reporter assay” value was determined as 0.072 nM.

B4: RLX305 (antibody)
heavy: DSWMEEVIKLCGRELVRAQIAICGMSTWSGGGGSGGGGQLYSALANKCCHVGCTKRSLARFCGGGGSGGGGSGGGGSGQVTLRESGPALVKPTQTLTLTCTFSGFSLSTSGMSVGWIRQPPGKALEWLADIWWDDKKDYNPSLKSRLTISKDTSKNQVVLKVTNMDPADTATYYCARSMITNAYFDVWGAGTTVTVSSASTKGPSVFPLAPSSKSTSGGTAALGCLVKDYFPEPVTVSWNSGALTSGVHTFPAVLQSSGLYSLSSVVTVPSSSLGTQTYICNVNHKPSNTKVDKKVEPKSCDKTHTCPPCPAPPVAGPSVFLFPPKPKDTLMISRTPEVTCVVVDVSHEDPEVKFNWYVDGVEVHNAKTKPREEQYNSTYRVVSVLTVLHQDWLNGKEYKCKVSNKGLPSSIEKTISKAKGQPREPQVYTLPPSRDELTKNQVSLTCLVKGFYPSDIAVEWESNGQPENNYKTTPPVLDSDGSFFLYSKLTVDKSRWQQGNVFSCSVMHEALHNHYTQKSLSLSPGK
light: DIQMTQSPSTLSASVGDRVTITCKCQLSVGYMHWYQQKPGKAPKLLIYDTSKLASGVPSRFSGSGSGTAFTLTISSLQPDDFATYYCFQYSGYPFTFGGGTKLEIKRTVAAPSVFIFPPSDEQLKSGTASVVCLLNNFYPREAKVQWKVDNALQSGNSQESVTEQDSKDSTYSLSSTLTLSKADYEKHKVYACEVTHQGLSSPVTKSFNRGEC
For B4, in assay [1], the affinity, expressed as Kd, was 75.2 nM.

B5: RLX303 (antibody)
heavy: DSWMEEVIKLCGRELVRAQIAICGMSTWSGGGGSGGGGQLYSALANKCCHVGCTKRSLARFCGGGGSGGGGSGGGGSGQVTLRESGPALVKPTQTLTLTCTFSGFSLSTSGMSVGWIRQPPGKALEWLADIWWDDKKDYNPSLKSRLTISKDTSKNQVVLKVTNMDPADTATYYCARSMITFGGFDVWGAGTTVTVSSASTKGPSVFPLAPSSKSTSGGTAALGCLVKDYFPEPVTVSWNSGALTSGVHTFPAVLQSSGLYSLSSVVTVPSSSLGTQTYICNVNHKPSNTKVDKKVEPKSCDKTHTCPPCPAPPVAGPSVFLFPPKPKDTLMISRTPEVTCVVVDVSHEDPEVKFNWYVDGVEVHNAKTKPREEQYNSTYRVVSVLTVLHQDWLNGKEYKCKVSNKGLPSSIEKTISKAKGQPREPQVYTLPPSRDELTKNQVSLTCLVKGFYPSDIAVEWESNGQPENNYKTTPPVLDSDGSFFLYSKLTVDKSRWQQGNVFSCSVMHEALHNHYTQKSLSLSPGK
light: DIQMTQSPSTLSASVGDRVTITCKCQLSVGYMHWYQQKPGKAPKLLIYDTSKLASGVPSRFSGSGSGTAFTLTISSLQPDDFATYYCFQGNGYPFTFGGGTKLEIKRTVAAPSVFIFPPSDEQLKSGTASVVCLLNNFYPREAKVQWKVDNALQSGNSQESVTEQDSKDSTYSLSSTLTLSKADYEKHKVYACEVTHQGLSSPVTKSFNRGEC
As to B5, binding in assay [1] was characterised by a dissociation constant (Kd) of 52.1 nM.

B6: RLX300 (no mutations) (antibody, human IgG1, kappa)
heavy: DSWMEEVIKLCGRELVRAQIAICGMSTWSGGGGSGGGGQLYSALANKCCHVGCTKRSLARFCGGGGSGGGGSGGGGSGQVTLRESGPALVKPTQTLTLTCTFSGFSLSTSGMSVGWIRQPPGKALEWLADIWWDDKKDYNPSLKSRLTISKDTSKNQVVLKVTNMDPADTATYYCARSMITNWYFDVWGAGTTVTVSSASTKGPSVFPLAPSSKSTSGGTAALGCLVKDYFPEPVTVSWNSGALTSGVHTFPAVLQSSGLYSLSSVVTVPSSSLGTQTYICNVNHKPSNTKVDKKVEPKSCDKTHTCPPCPAPPVAGPSVFLFPPKPKDTLMISRTPEVTCVVVDVSHEDPEVKFNWYVDGVEVHNAKTKPREEQYNSTYRVVSVLTVLHQDWLNGKEYKCKVSNKGLPSSIEKTISKAKGQPREPQVYTLPPSRDELTKNQVSLTCLVKGFYPSDIAVEWESNGQPENNYKTTPPVLDSDGSFFLYSKLTVDKSRWQQGNVFSCSVMHEALHNHYTQKSLSLSPGK
light: DIQMTQSPSTLSASVGDRVTITCKCQLSVGYMHWYQQKPGKAPKLLIYDTSKLASGVPSRFSGSGSGTAFTLTISSLQPDDFATYYCFQGSGYPFTFGGGTKLEIKRTVAAPSVFIFPPSDEQLKSGTASVVCLLNNFYPREAKVQWKVDNALQSGNSQESVTEQDSKDSTYSLSSTLTLSKADYEKHKVYACEVTHQGLSSPVTKSFNRGEC
notes: also called SC3.s
Turning to B6, in assay [1], the Kd is 0.301 nM.

B7: RLX306 (antibody)
heavy: DSWMEEVIKLCGRELVRAQIAICGMSTWSGGGGSGGGGQLYSALANKCCHVGCTKRSLARFCGGGGSGGGGSGGGGSGQVTLRESGPALVKPTQTLTLTCTFSGFSLSTSGMSVGWIRQPPGKALEWLADIWWDDKKDYNPSLKSRLTISKDTSKNQVVLKVTNMDPADTATYYCARSMITNAYFDVWGAGTTVTVSSASTKGPSVFPLAPSSKSTSGGTAALGCLVKDYFPEPVTVSWNSGALTSGVHTFPAVLQSSGLYSLSSVVTVPSSSLGTQTYICNVNHKPSNTKVDKKVEPKSCDKTHTCPPCPAPPVAGPSVFLFPPKPKDTLMISRTPEVTCVVVDVSHEDPEVKFNWYVDGVEVHNAKTKPREEQYNSTYRVVSVLTVLHQDWLNGKEYKCKVSNKGLPSSIEKTISKAKGQPREPQVYTLPPSRDELTKNQVSLTCLVKGFYPSDIAVEWESNGQPENNYKTTPPVLDSDGSFFLYSKLTVDKSRWQQGNVFSCSVMHEALHNHYTQKSLSLSPGK
light: DIQMTQSPSTLSASVGDRVTITCKCQLSVGYMHWYQQKPGKAPKLLIYDTSKLASGVPSRFSGSGSGTAFTLTISSLQPDDFATYYCFQGNGYPFTFGGGTKLEIKRTVAAPSVFIFPPSDEQLKSGTASVVCLLNNFYPREAKVQWKVDNALQSGNSQESVTEQDSKDSTYSLSSTLTLSKADYEKHKVYACEVTHQGLSSPVTKSFNRGEC
The molecule B7 yielded a Kd in assay [1] of 82.7 nM.

The values are drawn from US20190263882A1 (Scripps Research, published 2019).
